From paper PMC10700544 come the findings set out here.

“And” between values parts separate entries of the source, which are not always exact repeats. Identical values can stand only once.

The term stoichiometry N denotes the number of molecules, sites or subunits per partner or assembly.

The target of experiment [1] is His-tagged RNase J K649A (pET28a+) (Helicobacter pylori) (UniProt P56185). The experiment is described as follows: AUC; sedimentation velocity of His-tagged purified proteins, alone or mixed; 25 mM Tris-HCl pH 8, 300 mM NaCl, 0.5 mM TCEP; 20 °C; 230 nm; c(s) analysis with Sedfit.
The target of experiment [2] is His-tagged RNase J K649Q (pET28a+) (Helicobacter pylori) (UniProt P56185). The description is as above.
In experiment [3] the target is His-tagged RNase J K649R (pET28a+) (Helicobacter pylori) (UniProt P56185). The experiment is described as above.
Experiment [4] addresses His-tagged RNase J wild type (pET28a+) (Helicobacter pylori) (UniProt P56185). The experiment is described as above.
Experiment [5] addresses His-tagged RNase J K649A (pET28a+) (Helicobacter pylori) (UniProt P56185).
For experiment [6], the target named is His-tagged RhpA (pET28a+) (Helicobacter pylori) (UniProt O25029). As to the kind of experiment: AUC; sedimentation velocity of His-tagged purified proteins, alone or mixed; 25 mM Tris-HCl pH 8, 300 mM NaCl, 0.5 mM TCEP; 20 °C; 230 nm; c(s) analysis with Sedfit.
Experiment [7] concerns the target RhpA with C-terminal Strep-tag, from pExp-MBP (Helicobacter pylori) (UniProt O25029). As to the kind of experiment: mass photometry; Refeyn TwoMP; 20 mM sodium phosphate pH 7.2, 300 mM NaCl; final concentration of 50 nM.
For experiment [8], the target named is full-length RNase J (H. pylori strain B128) with C-terminal 8xHis-tag, from pExp-xMBP-CHis (Helicobacter pylori strain B128) (UniProt P56185). The description is as above.
The target is the same in experiment [9]. The experiment is described as follows: cryo-EM structure; mixture of RNase J (1 µM) and RhpA (2 µM) in 20 mM sodium phosphate pH 7.2, 500 mM NaCl, 0.5 mM TCEP; Quantifoil R1.2/1.3 grids, 200 kV Talos Arctica.

With “His-tagged RNase J K649A (pET28a+) (from UniProt P56185 1-689) (enzyme)”, in experiment [1], the stoichiometry N turned out to be 4.
As to “His-tagged RNase J K649Q (pET28a+) (from UniProt P56185 1-689) (enzyme)”, the stoichiometry N in experiment [2] was 4 and 2.
Turning to “His-tagged RNase J K649R (pET28a+) (from UniProt P56185 1-689) (enzyme)”, in experiment [3], the stoichiometry N is 4 and 2.
On to “His-tagged RNase J wild type (pET28a+) (from UniProt P56185 1-689) (enzyme)”, for which the stoichiometry N in [4] was 2 and 4.
“His-tagged RhpA (pET28a+) (from UniProt O25029 1-492) (enzyme)” had a half-life of the structured RNA substrate with the complex between RhpA and the RNase J K649A variant (value of the text, differs from the table) in [5] of 6.7 min. Further, the stoichiometry N in [6] came to 2.
As to “RhpA with C-terminal Strep-tag, from pExp-MBP (from UniProt O25029 1-492) (enzyme)”, the stoichiometry N in experiment [7] turned out to be 2.
Regarding “full-length RNase J (H. pylori strain B128) with C-terminal 8xHis-tag, from pExp-xMBP-CHis (from UniProt P56185 1-689) (enzyme)”, the stoichiometry N in [8] and in [9] was 4 in each case.
